From US20260250418A1 (BIOCYTOGEN PHARMACEUTICALS BEIJING, published 2026) come the findings set out here.

As usually defined, the Kd is the equilibrium constant for the complex coming apart. By koff is commonly meant the first-order rate constant of dissociation. A lower koff goes with slow dissociation. As a reminder, the kon is the rate constant with which the complex forms. Higher therefore signals faster complex formation.

Common to all, as to assay: SPR, Ab captured on Protein A
A general note: SPR reads the build-up and loss of mass on a sensor chip optically.

For experiment [1], the target named is T1, His-tagged dog HER3 protein (dHER3, SEQ ID NO: 45) (dog, UniProt P21860 20-642 (human entry)).
T1 construct: not shown: His tag
T1 chain: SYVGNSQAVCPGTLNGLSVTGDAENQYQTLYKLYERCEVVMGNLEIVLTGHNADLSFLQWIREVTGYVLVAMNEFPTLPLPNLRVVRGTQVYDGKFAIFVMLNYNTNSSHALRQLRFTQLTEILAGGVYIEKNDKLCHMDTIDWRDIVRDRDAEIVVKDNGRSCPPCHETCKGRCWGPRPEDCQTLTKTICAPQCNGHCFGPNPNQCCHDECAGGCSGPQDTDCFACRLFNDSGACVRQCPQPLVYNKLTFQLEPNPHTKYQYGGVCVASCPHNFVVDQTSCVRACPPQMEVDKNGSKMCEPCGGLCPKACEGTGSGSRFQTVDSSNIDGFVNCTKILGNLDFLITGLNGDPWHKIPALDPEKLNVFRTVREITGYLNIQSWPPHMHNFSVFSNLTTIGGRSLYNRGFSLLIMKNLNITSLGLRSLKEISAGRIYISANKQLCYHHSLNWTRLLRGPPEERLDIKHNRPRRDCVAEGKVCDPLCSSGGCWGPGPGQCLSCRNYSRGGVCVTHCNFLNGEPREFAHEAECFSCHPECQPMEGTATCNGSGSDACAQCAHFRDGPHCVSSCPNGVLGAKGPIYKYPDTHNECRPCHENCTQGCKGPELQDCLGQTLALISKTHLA
The method, then: Purified anti-HER3 antibodies was captured on the Protein A chip (Series S Sensor Chip Protein A) for the detection. […] For ISO control, an antibody targeting an irrelevant target protein was used. The flow rate was 30 μL/min, the binding and dissociation time were set to 180 s and 400 s, respectively. The chip was regenerated after the last injection of each titration with a glycine solution (pH 2.0) at 30 μL/min for 30 seconds.
As a person of ordinary skill in the art would understand, the same method with appropriate adjustments for parameters (e.g., antibody concentration) was performed for each tested antibody.

The target of experiment [2] is T2, human EGFR (hEGFR, ACRO Biosystems Inc., Cat #: EGR-H5222), recombinant His-tagged (human, UniProt P00533 25-645).
T2 construct: Bought protein; not shown: His tag
The procedure:
(§1) The cross binding activities of anti-HER3 antibodies to HER family proteins were determined by surface plasmon resonance (SPR) using Biacore (Biacore, INC, Piscataway N.J.) 8K biosensor equipped with pre-immobilized Protein A sensor chips.
(§2) Purified anti-HER3 antibodies were diluted to 2 μg/mL and then injected into the Biacore 8K biosensor at 10 μL/min for about 50 seconds to achieve a desired protein density (e.g., about 200 response units (RU)). […] The association phase lasted for 180 s and the dissociation phase lasted 400 s followed by a regeneration step with Glycine (pH 2.0, 30 μL/min for 30 seconds). For isotype control (ISO), an antibody targeting an irrelevant target protein was used.

In experiment [3] the target is T3, human HER4 (hHER4, ACRO Biosystems Inc., Cat #: ER4-H5221), recombinant His-tagged (human, UniProt Q15303 26-649).
T3 construct: Bought protein; not shown: His tag
T3 sequence (looked up): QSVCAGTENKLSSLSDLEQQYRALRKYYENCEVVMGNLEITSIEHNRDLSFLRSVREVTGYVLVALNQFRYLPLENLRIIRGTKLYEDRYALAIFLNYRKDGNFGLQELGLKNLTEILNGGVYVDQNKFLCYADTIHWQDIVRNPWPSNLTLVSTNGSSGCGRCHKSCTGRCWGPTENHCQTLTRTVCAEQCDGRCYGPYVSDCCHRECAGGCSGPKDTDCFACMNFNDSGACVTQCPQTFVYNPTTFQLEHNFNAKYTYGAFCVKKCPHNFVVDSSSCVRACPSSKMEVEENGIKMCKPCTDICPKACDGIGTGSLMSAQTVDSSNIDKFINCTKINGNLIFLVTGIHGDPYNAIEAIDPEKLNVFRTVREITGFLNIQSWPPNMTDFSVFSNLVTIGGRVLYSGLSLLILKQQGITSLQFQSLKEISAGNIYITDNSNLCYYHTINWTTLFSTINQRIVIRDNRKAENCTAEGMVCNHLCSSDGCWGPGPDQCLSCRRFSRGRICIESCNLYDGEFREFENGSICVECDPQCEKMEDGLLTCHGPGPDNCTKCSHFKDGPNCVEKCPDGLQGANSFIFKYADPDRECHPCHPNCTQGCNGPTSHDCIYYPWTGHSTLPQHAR
The method, then:
as §1, §2

Experiment [4] concerns the target T4, human HER2 (hHER2, ACRO Biosystems Inc., Cat #: HE2-H5225), recombinant His-tagged (human, UniProt P04626 23-652).
T4 construct: Bought protein; not shown: His tag
The procedure:
as §1, §2

B1: anti-HER3 antibody 1C5 (antibody, V domains shown)
VH: QVQLVESGGGVVQPGKSLRLSCAASGFTFSRSGMHWVRQAPGKGLEWVALISFDGSNKYYADSVKGRFTISRDNSKNTLNLQMNSLRAEDTAVYYCAKGGFGVVIYDAFDIWGHGTMVTVSS
VL: not shown
notes: common light chain
In experiment [1], B1 showed a Kd of 33.4 nM, a koff of 0.000418 s⁻¹ and a kon of 12500 M⁻¹ s⁻¹. The binding result in experiment [2] was “no binding (tested: 400 nM)”. The binding result in experiment [3] is reported as “no binding (tested: 400 nM)”. The binding result in experiment [4] is reported as “no binding (tested: 400 nM)”.

B2: anti-HER3 antibody 3G6 (antibody, V domains shown)
VH: QVQLVQSGPVLVKPTETLTLTCTVSGFSLSNIRMGVSWIRQPPGKALEWLAHIFSNDDKSYSTSLKSRLTISKDTSKSQVVLTMTNVDPVDTATYYCTRMRYSGGPFDYWGQGTLVTVSS
VL: not shown
notes: common light chain
In experiment [1], B2 had a Kd of 146 nM, a koff of 0.00809 s⁻¹ and a kon of 55500 M⁻¹ s⁻¹. Further, in experiment [2], the binding result is “no binding (tested: 400 nM)”. In addition, the binding result in experiment [3] was “no binding (tested: 400 nM)”. Besides, the binding result in experiment [4] was “no binding (tested: 400 nM)”.

B3: anti-HER3 antibody 1B2 (antibody, V domains shown)
VH: QVQLVQSGPVLVKPTETLTLTCTVSTFSLSNARMGVSWIRQPPGKALEWLAHIFSNDDKSYSPSLKSRLTISKDTSKTQVVLTMTNMDPVDTATYYCSRMRYSGGPFDYWGQGSLVTVSS
VL: not shown
notes: common light chain
The molecule B3 came in with a Kd in experiment [1] of 61.8 nM. In experiment [1], the koff is 0.00223 s⁻¹. Besides, the kon in experiment [1] was 36100 M⁻¹ s⁻¹. In addition, the binding result in experiment [2], in experiment [3] and in experiment [4] was “no binding (tested: 400 nM)” in each case.

B4: anti-HER3 antibody 3E1 (antibody, V domains shown)
VH: EVQLVQSGPVLAKPTETLTLTCTVSGFSLSNIRMGVSWIRQPPGKALEWLAHIFSNDDKSYSPSLKNRLTISKDTSKSQVVLTMTTMDPMDTATYYCTRMKYSGGPFDYWGQGTLVTVSS
VL: not shown
notes: common light chain
In turn, B4 displayed a Kd in experiment [1] of 50.4 nM. The molecule also displayed an off-rate constant (koff) in experiment [1] of 0.00288 s⁻¹. Further, the kon in experiment [1] is 57100 M⁻¹ s⁻¹. Besides, the binding result in experiment [2], in experiment [3] and in experiment [4] was “no binding (tested: 400 nM)” throughout.
